The values below come from patent US20160222085A1 (CHILDREN S HOSPITAL OF PHILADELPHIA, published 2016).

The target in experiment [1] is T1, FV-810^R1545Q (human, UniProt P12259 29-838; P12259 1520-2224).
T1 construct: range 1-810;range 1492-2196; mature numbering
The experiment in a line: fluorescence anisotropy; buffer-pretreated protein titrated into 30 nM OG488-BR, 50 uM PCPS; n=1 assumed. Here is the method: (§1) FV-810, FV-810^R709Q (▴), FV-810^R1545Q (♦), and FV-810^QQ (▪) were pretreated with buffer (FIG. 14A) or thrombin (FIG. 14B).
(§2) Steady-state fluorescence anisotropy was measured at 25° C. in a PTI Quanta-Master™ fluorescence spectrophotometer (Photon Technology International, Birmingham, N.J.) using excitation and emission wavelengths of 480 and 520 nm, respectively, with long-pass filters (KV500, CVI Melles Griot) in the emission beam.
Background: In fluorescence polarisation assays a small probe gives low polarisation when free and higher when bound to something large.

The target of experiment [2] is T2, FV-810 (FV-DT), Factor V with amino acids 811-1491 deleted from the B-domain (human, UniProt P12259 29-838; P12259 1520-2224).
T2 construct: range 1-810;range 1492-2196; Single-chain cofactor-like variant; All residue numbers count on mature Factor V (add 28 for the precursor)
Described as above. Here is the method:
as §1, §2
Target sequence in this assay (P12259 other isoform, or with tags, fused parts or gaps, form in doubt): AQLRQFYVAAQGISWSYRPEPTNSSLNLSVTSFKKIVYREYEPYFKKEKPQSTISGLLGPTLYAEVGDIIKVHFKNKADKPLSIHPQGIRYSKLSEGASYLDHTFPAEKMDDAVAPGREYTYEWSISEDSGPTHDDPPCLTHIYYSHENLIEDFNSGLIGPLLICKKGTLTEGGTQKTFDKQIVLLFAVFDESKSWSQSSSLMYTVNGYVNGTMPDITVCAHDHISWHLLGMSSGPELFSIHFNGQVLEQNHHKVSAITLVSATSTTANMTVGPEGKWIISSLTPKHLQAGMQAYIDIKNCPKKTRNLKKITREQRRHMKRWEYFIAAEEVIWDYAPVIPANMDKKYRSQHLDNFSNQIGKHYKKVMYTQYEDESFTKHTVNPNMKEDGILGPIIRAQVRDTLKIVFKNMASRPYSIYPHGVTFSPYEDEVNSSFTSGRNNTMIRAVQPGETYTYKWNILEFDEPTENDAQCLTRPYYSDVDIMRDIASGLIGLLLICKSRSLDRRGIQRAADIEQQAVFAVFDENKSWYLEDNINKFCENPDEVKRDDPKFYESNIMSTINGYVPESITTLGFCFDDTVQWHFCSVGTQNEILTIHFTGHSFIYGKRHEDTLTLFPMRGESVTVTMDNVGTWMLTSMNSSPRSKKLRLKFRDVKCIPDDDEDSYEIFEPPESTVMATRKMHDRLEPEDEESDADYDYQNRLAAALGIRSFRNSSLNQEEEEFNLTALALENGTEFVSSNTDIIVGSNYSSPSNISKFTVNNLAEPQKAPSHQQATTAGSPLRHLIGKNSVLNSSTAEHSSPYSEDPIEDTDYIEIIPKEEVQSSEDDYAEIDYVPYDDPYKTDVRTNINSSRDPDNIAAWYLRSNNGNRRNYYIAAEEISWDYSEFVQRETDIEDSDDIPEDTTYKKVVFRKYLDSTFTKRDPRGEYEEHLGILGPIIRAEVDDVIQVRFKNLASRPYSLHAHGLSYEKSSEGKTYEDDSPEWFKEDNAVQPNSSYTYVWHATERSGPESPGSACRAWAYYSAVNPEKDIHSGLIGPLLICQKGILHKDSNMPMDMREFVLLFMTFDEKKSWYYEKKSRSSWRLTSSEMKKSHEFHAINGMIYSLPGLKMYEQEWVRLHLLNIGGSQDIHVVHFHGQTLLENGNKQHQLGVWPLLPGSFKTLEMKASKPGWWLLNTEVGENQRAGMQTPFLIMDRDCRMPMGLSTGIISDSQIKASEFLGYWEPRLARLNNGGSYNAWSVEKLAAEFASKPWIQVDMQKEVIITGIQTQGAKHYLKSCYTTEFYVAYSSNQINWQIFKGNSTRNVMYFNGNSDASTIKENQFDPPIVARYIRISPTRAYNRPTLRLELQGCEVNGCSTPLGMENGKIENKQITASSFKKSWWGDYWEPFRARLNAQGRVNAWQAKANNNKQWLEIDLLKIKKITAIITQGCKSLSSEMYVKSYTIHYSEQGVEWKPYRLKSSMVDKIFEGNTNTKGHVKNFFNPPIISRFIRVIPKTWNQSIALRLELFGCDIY

For experiment [3], the target named is T3, FV-810^QQ (human, UniProt P12259 29-838; P12259 1520-2224).
T3 construct: range 1-810;range 1492-2196; Both thrombin sites (Arg709 and Arg1545) changed to Gln; the assay field says where thrombin pretreatment was used
Described as above. As to the method:
as §1, §2

Experiment [4] concerns the target T4, FV-810^R709Q (human, UniProt P12259 29-838; P12259 1520-2224).
T4 construct: range 1-810;range 1492-2196; mature numbering
Described as above. As to the method:
as §1, §2

Experiment [5] has as its target T5, FV-810^R1545Q pretreated with thrombin (human, UniProt P12259 29-737; P12259 738-838; P12259 1520-2224).
T5 construct: Cleaved only at Arg709: B-domain remnant stays tethered to the light chain; also called thrombin-cleaved FV-810^R1545Q
The experiment in a line: fluorescence anisotropy; thrombin-pretreated protein titrated into 30 nM OG488-BR, 50 uM PCPS; n=1 assumed. Here is the method:
as §1, §2

The target in experiment [6] is T3, FV-810^QQ. The description is as above. As to the method: as §1, §2
Experiment [7] addresses T2, FV-810 (FV-DT), Factor V with amino …. The experiment in a line: fluorescence anisotropy; FV-810 titrated into 20 or 40 nM OG488-BR, 50 uM PCPS, 25 C. As to the method:
(§3) Control experiments were performed by titrating FV-810 into buffer containing 10 mM EDTA (X) or by titrating rFVa (▴).
as §2
(§4) Data were analyzed by nonlinear least squares regression analysis using the Marquardt algorithm (Bevington et al. (1992) Data Reduction and Error Analysis for the Physical Sciences, pp. 141-167, McGraw-Hill, New York), and the quality of each fit was assessed as described (Straume et al. (1992) Methods Enzymol., 210:87-105).
Target sequence in this assay (P12259 other isoform, or with tags, fused parts or gaps, form in doubt): as above

Experiment [8] shares this target. The experiment in a line: fluorescence anisotropy, displacement; unlabeled BR titrated into 30 nM OG488-BR, 20 nM FV-810, 50 uM PCPS; competitor: OG488-BR [inset]. As to the method: as §3
For experiment [9] the target is unchanged. The experiment in a line: global fit of prethrombin-2 activation rates (1-50 nM FXa, 0-1000 nM BR, 5 nM FV-810, 50 uM PCPS) to a tight, competitive binding model. Here is the method: as §4
Experiment [10] shares this target. The experiment in a line: fluorescence anisotropy, displacement; human BR titrated into 30 nM OG488-BR, 20 nM FV-810, 50 uM PCPS, 25 C; competitor: OG488-BR.
Experiment [11] shares this target. The experiment in a line: fluorescence anisotropy displacement; unlabeled BR titrated into 30 nM OG488-BR, 20 nM FV-810, 50 uM PCPS. Here is the method: as §3, §4
The target is the same in experiment [12]. The experiment in a line: fluorescence anisotropy displacement of OG488-BR; 30 nM OG488-BR, 20 nM FV-810, 50 uM PCPS; stoichiometry of 1 assumed.
Experiment [13] has the same target. The experiment in a line: fluorescence anisotropy, displacement; FVBR titrated into labeled active site-blocked FXa plus FVDT on PCPS liposomes; displaced ligand: labeled FXa.

Ends that are not written are not given here.

T3 sequence (P12259 other isoform, or with tags, fused parts or gaps): as the sequence (P12259 other isoform, or with tags, fused parts or gaps, form in doubt) above, with R709Q, R864Q counted along it
T1 sequence (P12259 other isoform, or with tags, fused parts or gaps R1545Q R1545Q): as the sequence (P12259 other isoform, or with tags, fused parts or gaps, form in doubt) above, with R864Q counted along it
T4 sequence (P12259 other isoform, or with tags, fused parts or gaps R709Q R709Q): as the sequence (P12259 other isoform, or with tags, fused parts or gaps, form in doubt) above, with R709Q counted along it
T5 sequence (P12259 29-737, chain 1 of 2): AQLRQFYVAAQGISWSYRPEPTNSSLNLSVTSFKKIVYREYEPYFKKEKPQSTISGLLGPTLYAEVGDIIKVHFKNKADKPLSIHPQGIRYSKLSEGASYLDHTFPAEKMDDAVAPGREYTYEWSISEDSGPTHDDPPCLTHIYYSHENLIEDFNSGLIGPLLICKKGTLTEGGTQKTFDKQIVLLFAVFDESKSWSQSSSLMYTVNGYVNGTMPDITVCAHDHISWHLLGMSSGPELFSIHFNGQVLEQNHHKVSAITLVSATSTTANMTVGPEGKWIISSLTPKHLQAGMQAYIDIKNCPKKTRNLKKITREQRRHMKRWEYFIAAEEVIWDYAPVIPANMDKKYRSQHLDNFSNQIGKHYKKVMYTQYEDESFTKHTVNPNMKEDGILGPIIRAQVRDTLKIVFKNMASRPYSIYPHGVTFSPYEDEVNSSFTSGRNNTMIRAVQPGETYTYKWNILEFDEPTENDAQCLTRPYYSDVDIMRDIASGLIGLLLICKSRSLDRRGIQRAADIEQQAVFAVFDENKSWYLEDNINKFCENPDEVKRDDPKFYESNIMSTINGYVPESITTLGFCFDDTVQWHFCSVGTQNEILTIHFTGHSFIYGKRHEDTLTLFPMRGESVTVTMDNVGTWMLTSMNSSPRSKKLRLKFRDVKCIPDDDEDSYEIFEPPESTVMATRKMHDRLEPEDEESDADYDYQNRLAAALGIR
T5 sequence (P12259 other isoform, or with tags, fused parts or gaps R1545Q R1545Q, chain 2 of 2): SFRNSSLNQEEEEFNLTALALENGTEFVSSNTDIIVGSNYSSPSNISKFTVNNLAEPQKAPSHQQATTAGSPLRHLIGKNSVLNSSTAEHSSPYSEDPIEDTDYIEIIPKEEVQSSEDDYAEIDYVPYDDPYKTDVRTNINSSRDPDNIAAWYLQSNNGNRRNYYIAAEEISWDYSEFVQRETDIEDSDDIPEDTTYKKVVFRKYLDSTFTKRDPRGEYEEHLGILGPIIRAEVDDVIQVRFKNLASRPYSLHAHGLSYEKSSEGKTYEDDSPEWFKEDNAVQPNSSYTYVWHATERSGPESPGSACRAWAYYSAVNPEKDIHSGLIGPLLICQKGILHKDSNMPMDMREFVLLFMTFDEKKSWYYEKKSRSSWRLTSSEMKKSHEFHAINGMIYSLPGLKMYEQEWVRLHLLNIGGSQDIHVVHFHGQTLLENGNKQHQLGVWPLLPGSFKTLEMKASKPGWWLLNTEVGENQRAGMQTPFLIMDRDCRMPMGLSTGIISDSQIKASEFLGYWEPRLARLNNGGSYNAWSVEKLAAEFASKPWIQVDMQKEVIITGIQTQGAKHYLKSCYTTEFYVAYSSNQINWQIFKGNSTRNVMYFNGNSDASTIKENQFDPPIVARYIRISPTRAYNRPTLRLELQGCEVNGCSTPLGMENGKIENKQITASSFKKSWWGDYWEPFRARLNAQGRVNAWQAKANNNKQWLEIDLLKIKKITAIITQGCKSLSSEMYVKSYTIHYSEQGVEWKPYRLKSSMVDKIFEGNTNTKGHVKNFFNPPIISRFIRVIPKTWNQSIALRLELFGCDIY

B1: Oregon Green 488 maleimide-modified BR (OG488-BR) (peptide)
peptide: C(Oregon Green 488 maleimide)SRAWGESTPLANKPGKQSGHPKFPRVRHKSLQVRQDGGKSRLKKSQFLIKTRKKKKEK
notes: also called fluorescently labeled FVBR
For B1, the dissociation constant (Kd) (as a rule, a measure of binding affinity in units of concentration) in [1] is 2 nM; in experiment [2], 2.1 nM; in [3], 0.31 nM; in experiment [4] it was 7.1 nM; in experiment [5] it was 30.3 nM; in [6] it was 1.3 nM. Further, the Kd in experiment [7] came out at 2.07 nM.

B2: Factor V basic region peptide (FVBR), amino acids 951-1008 of Factor V (peptide)
peptide: SRAWGESTPLANKPGKQSGHPKFPRVRHKSLQVRQDGGKSRLKKSQFLIKTRKKKKEK
notes: Expressed in E. coli as a SUMO fusion; also called FV basic peptide; BR peptide
In the case of B2, the “IC50 (read off the curve)” value was about 50 nM in experiment [8], about 50 nM in experiment [10] and about 90 nM in [13]. For the same molecule, the Kd was found to be 34.2 nM in [9], 2.1 nM in experiment [11] and 2.2 nM in experiment [12].
